Publication PMC9426602, “The Native Orthobunyavirus Ribonucleoprotein Possesses a Helical Architecture” (mBio, 2022)

Target: the molecule itself
Test: negative staining EM; purified native RNPs, untreated, in reduced-salt TNE (25 mM NaCl), 1% uranyl acetate

B1: Bunyamwera virus (BUNV) nucleocapsid protein (NP), as it stands in native ribonucleoproteins (RNPs) purified from virions (natural protein)
chain: MIELEFHDVAANTSSTFDPEVAYANFKRVHTTGLSYDHIRIFYIKGREIKTSLAKRSEWEVTLNLGGWKITVYNTNFPGNRNNPVPDDGLTLHRLSGFLARYLLEKMLKVSEPEKLIIKSKIINPLAEKNGITWNDGEEVYLSFFPGSEMFLGTFRFYPLAIGIYKVQRKEMEPKYLEKTMRQRYMGLEAATWTVSKLTEVQSALTVVSSLGWKKTNVSAAARDFLAKFGINM
notes: the atomic model started from the BUNV NP crystal structure PDB 3ZLA; Many copies of NP form a helical filament around each RNA segment (about 3.4 NPs per turn); the number of copies depends on the segment; The viral RNA is part of the assembly; also called BUNV NP; source: native RNPs from BUNV virions grown in BHK-21 cells; virions disrupted by freeze/thaw, RNPs purified on a 10 to 25% OptiPrep …
- binding result: binds
